Entries after “also recorded” stand apart in the source; their conditions may differ.
How the values were obtained:
[1] = molecular target: T1, PDGF-β target sequence (PTD10, […]) (Homo sapiens, UniProt P01127); assay: Dot blot to detect the PDGF-β target sequence PTD10; format: binding; conditions: beta sheet target
T1 construct: […]; purchased Peptide 2.0
Description: (§1) Finally, the blot was incubated with the chromogenic substrates.

[2] = molecular target: alkaline phosphatase target sequence (PTD8, […]) (Escherichia coli, UniProt P00634); conditions: dot blot, coil-beta sheet-coil target
Description: For dot blot analysis, 1 μl (2.5 μg) or 2 μl (5 μg) of samples were spotted onto the nitrocellulose (NC) membrane and dried completely. Then, non-specific sites were blocked by soaking the membrane in the blocking solution made for NC membranes [Thermo Fisher Scientific, WesternBreeze™ Blocker/Diluent (Part A and B), catalog #WB7050]. The membrane was washed twice with water (1 ml per cm^2 membrane), and incubated with the 1st antibody (Ab) in a binding/wash (BW) buffer [50 mM sodiumphosphate, pH 8.0, 300 mM NaCl, and 0.01% Tween 20] for 1 h. The membrane was washed 4 times (for 2 minutes per wash) with the wash buffer [Thermo Fisher Scientific, WesternBreeze™ Wash Solution, catalog #WB7003]. If the 1st oligopeptide was Anti-Cas9 Ab-HRP conjugate [Thermo Fisher Scientific, catalog #MAC133P] or the peptide-AP fusions, the membrane was washed twice with water, and incubated with the chromogenic substrates, Chromogenic Substrate (TMB) [Thermo Fisher Scientific, catalog #WP20004] for HRP and NBT/BCIP substrate solution for AP [Thermo Fisher Scientific, catalog #34042]. Otherwise, the membrane was incubated with in the blocking solution for 1 h. To detect His-tagged peptide and proteins, the Anti-6His Ab-HRP conjugate [Thermo Fisher Scientific, catalog 46-0707] was used. Then the membrane was washed four times with the wash buffer and two times with water. Finally, the blot was incubated with the chromogenic substrates.

[3] = molecular target: T2, Cas9 target sequence (PTD12, EKLYLYYLQ, Helix: E813 to Q821) (Streptococcus pyogenes serotype M1, UniProt Q99ZW2); assay: Dot blot to detect the Cas9 target sequence peptide PTD12; format: binding; conditions: for interaction of His-tagged synthetic CAAP oligopeptide with the target peptide PTD12: dot blot, peptide as 1st Ab, Anti-6His Ab-HRP detection
T2 construct: […]; purchased Peptide 2.0
Description: as §1
For the image processing, we used Adobe Photoshop 7.0. Quantitative image analysis of the digital images was carried out using measuring tools of imaging software ImageJ (Schneider et al. 2012). Image analysis results were calculated by averaging data from three independent experiments.

Cas9 protein [4] = molecular target: T3, Cas9 protein (Streptococcus pyogenes serotype M1, UniProt Q99ZW2); assay: Dot blot to detect whole Cas9 protein (non-denatured); format: binding; conditions: Cas9 (no tag)
T3 construct: made in house; host or cells: E. coli BL21 Star (DE3)
T3 sequence (Q99ZW2 whole entry): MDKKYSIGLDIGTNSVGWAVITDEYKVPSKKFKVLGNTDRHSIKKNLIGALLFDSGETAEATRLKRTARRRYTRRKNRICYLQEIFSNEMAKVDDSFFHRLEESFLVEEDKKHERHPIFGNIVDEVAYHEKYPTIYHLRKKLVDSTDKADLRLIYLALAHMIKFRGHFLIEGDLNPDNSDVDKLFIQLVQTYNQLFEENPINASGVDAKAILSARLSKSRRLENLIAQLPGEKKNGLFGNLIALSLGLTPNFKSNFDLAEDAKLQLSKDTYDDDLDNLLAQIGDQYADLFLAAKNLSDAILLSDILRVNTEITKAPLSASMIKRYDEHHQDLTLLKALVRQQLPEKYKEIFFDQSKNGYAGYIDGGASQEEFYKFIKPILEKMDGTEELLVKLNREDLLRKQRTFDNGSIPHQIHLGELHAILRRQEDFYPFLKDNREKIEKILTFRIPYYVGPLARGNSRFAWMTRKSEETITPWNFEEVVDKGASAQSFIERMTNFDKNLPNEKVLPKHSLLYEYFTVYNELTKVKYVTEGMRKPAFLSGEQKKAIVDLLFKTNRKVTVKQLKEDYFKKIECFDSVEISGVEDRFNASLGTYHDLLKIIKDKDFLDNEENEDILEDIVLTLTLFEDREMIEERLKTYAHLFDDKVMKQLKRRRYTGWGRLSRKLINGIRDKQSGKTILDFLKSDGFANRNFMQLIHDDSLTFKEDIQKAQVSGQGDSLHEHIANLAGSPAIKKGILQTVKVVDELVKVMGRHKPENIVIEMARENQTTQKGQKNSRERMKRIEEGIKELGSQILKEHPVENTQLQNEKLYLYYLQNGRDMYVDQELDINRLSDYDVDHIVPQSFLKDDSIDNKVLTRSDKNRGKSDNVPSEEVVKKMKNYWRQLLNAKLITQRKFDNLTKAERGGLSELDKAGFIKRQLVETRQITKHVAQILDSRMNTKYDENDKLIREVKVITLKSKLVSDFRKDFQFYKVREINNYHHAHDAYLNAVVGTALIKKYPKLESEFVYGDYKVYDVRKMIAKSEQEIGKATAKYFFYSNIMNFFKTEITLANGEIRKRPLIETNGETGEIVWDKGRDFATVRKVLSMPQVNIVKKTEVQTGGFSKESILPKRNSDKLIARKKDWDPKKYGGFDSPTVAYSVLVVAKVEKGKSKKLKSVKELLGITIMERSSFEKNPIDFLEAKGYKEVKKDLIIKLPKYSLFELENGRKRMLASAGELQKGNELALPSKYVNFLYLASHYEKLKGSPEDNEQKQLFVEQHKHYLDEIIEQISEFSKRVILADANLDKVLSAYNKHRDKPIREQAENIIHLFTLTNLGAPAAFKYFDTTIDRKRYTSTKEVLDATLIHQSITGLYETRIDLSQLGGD
Description: as §1

[5] = molecular target: control peptide (PTD8, unrelated peptide) (Escherichia coli, UniProt P00634); conditions: dot blot, unrelated target (negative control)
Description: For dot blot analysis, 1 μl (2.5 μg) or 2 μl (5 μg) of samples were spotted onto the nitrocellulose (NC) membrane and dried completely. Then, non-specific sites were blocked by soaking the membrane in the blocking solution made for NC membranes [Thermo Fisher Scientific, WesternBreeze™ Blocker/Diluent (Part A and B), catalog #WB7050]. The membrane was washed twice with water (1 ml per cm^2 membrane), and incubated with the 1st antibody (Ab) in a binding/wash (BW) buffer [50 mM sodiumphosphate, pH 8.0, 300 mM NaCl, and 0.01% Tween 20] for 1 h. The membrane was washed 4 times (for 2 minutes per wash) with the wash buffer [Thermo Fisher Scientific, WesternBreeze™ Wash Solution, catalog #WB7003]. If the 1st oligopeptide was Anti-Cas9 Ab-HRP conjugate [Thermo Fisher Scientific, catalog #MAC133P] or the peptide-AP fusions, the membrane was washed twice with water, and incubated with the chromogenic substrates, Chromogenic Substrate (TMB) [Thermo Fisher Scientific, catalog #WP20004] for HRP and NBT/BCIP substrate solution for AP [Thermo Fisher Scientific, catalog #34042]. Otherwise, the membrane was incubated with in the blocking solution for 1 h. To detect His-tagged peptide and proteins, the Anti-6His Ab-HRP conjugate [Thermo Fisher Scientific, catalog 46-0707] was used. Then the membrane was washed four times with the wash buffer and two times with water. […]

[6] = test system: whole proteome of E. coli BL21 Star DE3; assay: Western blot to detect binders in the whole proteome of E. coli BL21 Star DE3 (specificity); format: binding
From the text: For the western blot analysis, the protein samples were resolved in 4-20% gradient SDS-PAGE gel, transferred to NC membrane, and subjected to the western blot analysis using the same method for the dot blot analysis.

Cas9 protein [7] = molecular target: T3, Cas9 protein; assay: Western blot to detect whole Cas9 protein (denatured); format: binding; conditions: Cas9 (no tag), 4-20% SDS-PAGE
Description: as §1

Cas9 nuclease = molecular target: T4, Cas9 nuclease (Streptococcus pyogenes serotype M1, UniProt Q99ZW2); assay: Cas9 activity assay in vitro (RNA-guided cleavage of 510 bp human AAVS1 DNA); format: biochemical
T4 construct: made in house; host or cells: E. coli BL21 Star (DE3)
T4 sequence (Q99ZW2 whole entry): as above
From the text: The sgRNA targeting human AAVS1 region (target sequence […] (SEQ ID NO: 36), PAM sequence underlined) was synthesized by in vitro transcription using a 118 bp PCR-assembled DNA fragment AAVS1_T23826 as template, following the manufacturer's protocol [Thermo Fisher Scientific, TranscriptAid T7 High Yield Transcription Kit, catalog #K0441]. The sgRNA product was purified using the GeneJET RNA Purification Micro Column [Thermo Fisher Scientific, catalog #K0841].
A 510 bp human AAVS1 region was amplified from HEK293 genomic DNA by PCR using a primer set (CH1161 and CH1162) and used as a target DNA for the in vitro CRISPR/Cas9 assay. Performance of the Cas9 protein was assessed in various concentrations of Cas9 [100, 50, 25, 12.5, and 0 ng] in presence or absence of sgRNA and peptides (PTD14 (SEQ ID NO: 11) and PTD16 (SEQ ID NO: 30)) in the 1× buffer K [20 mM Tris-HCl, pH 8.5, 10 mM MgCl2, 1 mM Dithiothreitol (DTT), and 100 mM KCl]. The PTD16 (SEQ ID NO: 30) was used as an unrelated peptide control. The reaction mixture was incubated at 37° C. for 15 minutes. The reaction was stopped by adding a stop buffer [1 mM Tris-HCl (pH 7.5), 10 mM EDTA, 6.5% (w/v) Sucrose, 0.03% (w/v) Bromophenol Blue] and heat inactivated at 75° C. for 5 minutes. The reaction samples were resolved in 4% agarose gel.

## DLDYAQLRDKCYPENEDRLQSYDLDGSGSHHHHHH [PTD18, His-tagged CAAP oligopeptide dimer, parallel and antiparallel, against PDGF-β]
[1]
  interaction with the PDGF-β target oligopeptide PTD10: bound to the target

## EDRLQSYDLDGSGSHHHHHH [PTD17, His-tagged CAAP oligopeptide monomer, antiparallel, against PDGF-β]
[1]
  interaction with the PDGF-β target oligopeptide PTD10: no detectable interaction

## EYRLYLRALCYPENLSRAYLSYEGSGSHHHHHH [PTD16]
[2]
  interaction with the AP target oligopeptide PTD8: bound to the target

## GSGSHHHHHH [PTD20, linker-His-tag only, negative control, reference compound]
[2]
  interaction with the AP target oligopeptide PTD8: no detectable interaction
[1]
  interaction with the PDGF-β target oligopeptide PTD10: no detectable interaction

## LEQIKIRLFGSGSHHHHHH [PTD13]
[3]
  interaction of His-tagged synthetic CAAP oligopeptide with the target peptide PTD12: could interact; also recorded: detected
Cas9 protein [4]
  detection of whole Cas9 protein in dot blot: unable to detect
[5]
  interaction of His-tagged synthetic CAAP oligopeptide with the control peptide PTD8: no interaction
[6]
  number of major bands detected in E. coli whole cell lysate: one
  number of minor bands detected in E. coli whole cell lysate: 2
Cas9 protein [7]
  detection of whole Cas9 protein in western blot: unable to detect

## LLQVDVILLCYPENLEQIKIRLFGSGSHHHHHH [PTD14]
Cas9 nuclease; 510 bp AAVS1 DNA, 37° C. 15 minutes, PTD16 as unrelated peptide control
  effect on RNA-guided DNA cleavage by Cas9 nuclease: no significant effect
Cas9 nuclease; presence or absence of gRNA, various Cas9 concentrations
  non-specific DNA binding activity of the Cas9 protein directed by the peptide: significant induction; also recorded: very strong
[3]; dot blot densitometry, dimer vs monomer
  strength of interaction with PTD12 relative to monomer PTD13: stronger (two-fold)
[3]
  interaction of His-tagged synthetic CAAP oligopeptide with the target peptide PTD12: could interact
Cas9 protein [4]
  detection of whole Cas9 protein in dot blot: able to detect
[5]
  interaction of His-tagged synthetic CAAP oligopeptide with the control peptide PTD8: no interaction
[6]
  number of major bands detected in E. coli whole cell lysate: one
  number of minor bands detected in E. coli whole cell lysate: 4
Cas9 protein [7]
  detection of whole Cas9 protein in western blot: able to detect

## LSRAYLSYEGSGSHHHHHH [PTD15]
[2]
  interaction with the AP target oligopeptide PTD8: no detectable interaction
